Holding throughout (assay): SPR
For orientation: In SPR one partner is held on a chip, and binding of the other changes the refractive index at the surface.

One series addresses T1, MutS D835R (Escherichia coli, UniProt P23909 1-853, D835R).
T1 sequence: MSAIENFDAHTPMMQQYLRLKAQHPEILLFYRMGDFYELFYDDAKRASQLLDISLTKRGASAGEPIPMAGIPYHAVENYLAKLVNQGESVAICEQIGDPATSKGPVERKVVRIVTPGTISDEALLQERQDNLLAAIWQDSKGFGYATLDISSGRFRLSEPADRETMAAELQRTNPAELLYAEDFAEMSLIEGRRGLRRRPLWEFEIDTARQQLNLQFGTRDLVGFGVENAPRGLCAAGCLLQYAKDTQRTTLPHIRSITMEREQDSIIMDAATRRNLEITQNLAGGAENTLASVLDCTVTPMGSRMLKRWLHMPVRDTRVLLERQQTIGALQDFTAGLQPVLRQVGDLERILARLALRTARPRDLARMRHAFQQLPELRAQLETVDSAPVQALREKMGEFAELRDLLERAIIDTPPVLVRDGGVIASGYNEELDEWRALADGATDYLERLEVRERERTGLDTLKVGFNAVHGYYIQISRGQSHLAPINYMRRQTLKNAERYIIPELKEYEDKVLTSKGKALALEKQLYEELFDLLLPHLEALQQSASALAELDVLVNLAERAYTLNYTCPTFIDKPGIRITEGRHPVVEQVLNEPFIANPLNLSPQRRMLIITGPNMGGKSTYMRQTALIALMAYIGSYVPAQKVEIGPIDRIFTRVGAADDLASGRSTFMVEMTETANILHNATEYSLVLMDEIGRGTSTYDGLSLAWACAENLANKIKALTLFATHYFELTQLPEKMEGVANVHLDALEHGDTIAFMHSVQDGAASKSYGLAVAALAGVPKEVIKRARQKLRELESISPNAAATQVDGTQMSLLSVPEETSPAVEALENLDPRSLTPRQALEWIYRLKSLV

The target of series [1] is MSH2 WT (MutSα);MSH6 WT (MutSα) (human;human, UniProt P43246;P52701 1-934;1-1360, |).
Series [2] concerns the target MSH2 del2-7;MSH6 WT (MutSα) (human;human, UniProt P43246;P52701 1-934;1-1360, del2-7|).
Series [3] concerns the target MSH2 dMBD2;MSH6 WT (MutSα) (human;human, UniProt P43246;P52701 125-934;1-1360, |).
Another series addresses T2, MutS WT (Escherichia coli, UniProt P23909 1-853).
T2 sequence: T1 sequence with R835D

Where a chain is given by its changes, count along the chain named.

B1: 21 bp GT mismatch (SPR) (dsDNA)
DNA 1: TTTTTTTTTTTTTTTTTTTTAGTCGCCAGGGACCAGTGTCA
DNA 2: TGACACTGGTCTCTGGCGACT
Consider B1, for which the Kd with MutS D835R stood at 30.85 ± 0.08 nM; in series [1], 1.08 ± 0.02 nM; in series [2], 3.28 ± 0.12 nM; in series [3], 16.4 ± 0.86 nM. For the same molecule, in the series with MutS WT, the binding result is on record as “binds”.

In general, Kd refers to the concentration at which binding is half-saturated. Low readings indicate higher affinity, high ones lower affinity.

For the origin of these results see PMC9943660.
